In article PMC9256674, “Structures of LIG1 that engage with mutagenic mismatches inserted by polβ in base excision repair”:

Key:
[1] = molecular target: AP-endonuclease 1 (human) (UniProt P27695); experiment: SPR; Biacore X-100; APE1 amine-coupled on a CM5 chip, 25 °C; LIG1 0-1.6 µM injected as analyte in 20 mM HEPES pH 7.4, 150 mM NaCl, 3 mM EDTA, 0.005% Surfactant P20; 1:1 (Langmuir) fit
[2] = molecular target: T1, LIG1 EE/AA (C-terminal, Δ261) (Homo sapiens, UniProt P18858 262-919, E346A;E592A); experiment: X-ray crystallography (2.8 Å); AMP covalently on K568 (LIG1-AMP, step 1); no Mg2+; Crystallization conditions not in the material; LIG1 final purification buffer 20 mM Tris-HCl pH 7.0, 200 mM NaCl, 1 mM DTT; storage 25 mM Tris-HCl pH 7.0, 200; conditions: protein: recombinant; nicked duplex: 11-mer upstream + 7-mer 5'-P downstream on 18-mer template; blunt ends; A:C wobble mismatch at nick 3'-end
T1 sequence (P18858 262-919 E346A/E592A): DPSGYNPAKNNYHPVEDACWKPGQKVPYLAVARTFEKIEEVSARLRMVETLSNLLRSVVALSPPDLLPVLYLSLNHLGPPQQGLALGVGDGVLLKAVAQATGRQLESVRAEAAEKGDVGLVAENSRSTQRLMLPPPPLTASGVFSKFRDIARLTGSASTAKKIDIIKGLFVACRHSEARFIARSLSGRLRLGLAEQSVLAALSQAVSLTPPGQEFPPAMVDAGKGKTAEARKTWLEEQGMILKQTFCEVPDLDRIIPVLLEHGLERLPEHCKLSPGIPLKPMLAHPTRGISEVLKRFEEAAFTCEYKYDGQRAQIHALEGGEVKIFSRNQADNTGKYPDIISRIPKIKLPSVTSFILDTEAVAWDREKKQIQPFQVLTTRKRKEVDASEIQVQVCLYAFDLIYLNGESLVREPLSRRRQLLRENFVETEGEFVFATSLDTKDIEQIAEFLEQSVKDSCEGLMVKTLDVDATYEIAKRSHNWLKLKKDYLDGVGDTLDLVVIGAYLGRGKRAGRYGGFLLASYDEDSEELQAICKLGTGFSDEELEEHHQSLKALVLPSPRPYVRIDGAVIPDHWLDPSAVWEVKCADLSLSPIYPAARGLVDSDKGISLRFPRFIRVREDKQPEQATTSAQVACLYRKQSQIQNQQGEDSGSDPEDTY

[3] = molecular target: T1, LIG1 EE/AA (C-terminal, Δ261); experiment: X-ray crystallography (3.0 Å); AMP as DNA-AMP (step 2); no Mg2+; Crystallization conditions not in the material; LIG1 final purification buffer 20 mM Tris-HCl pH 7.0, 200 mM NaCl, 1 mM DTT; storage 25 mM Tris-HCl pH 7.0, 200; conditions: protein: recombinant; nicked duplex: 11-mer upstream + 7-mer 5'-P downstream on 18-mer template; blunt ends; G:T wobble mismatch at nick 3'-end
[4] = molecular target: T1, LIG1 EE/AA (C-terminal, Δ261); experiment: X-ray crystallography (2.9 Å); AMP as DNA-AMP (step 2); no Mg2+; Crystallization conditions not in the material; LIG1 final purification buffer 20 mM Tris-HCl pH 7.0, 200 mM NaCl, 1 mM DTT; storage 25 mM Tris-HCl pH 7.0, 200; conditions: protein: recombinant; nicked duplex: 11-mer upstream + 7-mer 5'-P downstream on 18-mer template; blunt ends; A:T at nick 3'-end

AP-endonuclease 1 (human), sequence (P27695 whole entry): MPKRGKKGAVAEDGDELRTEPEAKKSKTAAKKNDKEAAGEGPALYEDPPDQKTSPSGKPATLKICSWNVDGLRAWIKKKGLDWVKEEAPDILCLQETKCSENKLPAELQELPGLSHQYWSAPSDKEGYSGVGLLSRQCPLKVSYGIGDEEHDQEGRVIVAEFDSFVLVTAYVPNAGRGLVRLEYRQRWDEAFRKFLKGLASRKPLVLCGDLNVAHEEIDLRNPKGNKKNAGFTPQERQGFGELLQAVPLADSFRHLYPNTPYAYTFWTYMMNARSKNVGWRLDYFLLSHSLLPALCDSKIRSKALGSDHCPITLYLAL

Q: With “DNA ligase I (from UniProt P18858 1-919) (enzyme)” as the molecule, how does the Kd [1] read?
A: 117 nM

B1: nick DNA 3'-A:C (dsDNA)
DNA 1: GCTGATGCGTA
DNA 2: GTCGGAC
DNA 3: GTCCGACCACGCATCAGC
modifications: 5'-phosphate on downstream strand (GTCGGAC), not adenylated
Q: Does B1 bind [2]?
A: binds

B2: nick DNA 3'-G:T (dsDNA)
DNA 1: GCTGATGCGTG
DNA 2: GTCGGAC
DNA 3: GTCCGACTACGCATCAGC
modifications: 5'-phosphate on downstream strand (GTCGGAC); adenylated (5'-AMP) in the crystal
Q: Does B2 bind [3]?
A: binds

B3: nick DNA 3'-A:T (dsDNA)
DNA 1: GCTGATGCGTA
DNA 2: GTCGGAC
DNA 3: GTCCGACTACGCATCAGC
modifications: 5'-phosphate on downstream strand (GTCGGAC); adenylated (5'-AMP) in the crystal
Q: Does B3 bind [4]?
A: binds
